From PMC9922763

Target: synthetic IAPP, used as monomer and as sonicated preformed fibrils (seeds) (UniProt P10997)

synthetic IAPP, used as monomer and as sonicated preformed fibrils (seeds) (from UniProt P10997 34-70) (peptide), sequence (P10997 34-70): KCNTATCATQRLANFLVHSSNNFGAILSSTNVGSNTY

- lag phase of ThT fibril formation of 2.5 µM monomeric IAPP after adding IAPP seeds corresponding to 100 nM monomeric peptide (240 min without seeds); PBS pH 7.4, 37°C: 20 min
Substance: synthetic IAPP, used as monomer and as sonicated preformed fibrils (seeds) (from UniProt P10997 34-70) (peptide)
